Tests used:
HLA-A*68:01 = assay: IEDB peptide-MHC binding, purified MHC/competitive/radioactivity; filed as Kd, often an IC50 or EC50 that approximates it; ≥ and ≤ were set here for values at or beyond the usual limits of such assays; conditions: source organism: Vaccinia virus WR
HLA-A*33:01 = assay: as above; conditions: source organism: Vaccinia virus WR
HLA-A*02:01 [1] = assay: as above
HLA-A*68:02 = assay: as above; conditions: source organism: Vaccinia virus WR
HLA-B*51:01 = assay: as above
HLA-A*02:06 = assay: as above
HLA-A*11:01 [2] = assay: as above; conditions: source organism: Vaccinia virus WR
HLA-B*35:01 = assay: as above
HLA-B*07:02 = assay: as above
HLA-B*53:01 = assay: as above
HLA-A*31:01 = assay: as above; conditions: source organism: Vaccinia virus WR
HLA-A*02:02 = assay: as above; conditions: source organism: Vaccinia virus WR
HLA-A*03:01 = assay: as above; conditions: source organism: Vaccinia virus WR
HLA-A*02:03 = assay: as above
HLA-B*54:01 = assay: as above
HLA-A*02:17 = assay: as above
HLA-A*11:01 [3] = assay: IEDB peptide-MHC binding, purified MHC/competitive/fluorescence; ≥ and ≤ were set here for values at or beyond the usual limits of such assays
HLA-A*24:02 = assay: as above
HLA-B*44:02 = assay: IEDB peptide-MHC binding, purified MHC/competitive/radioactivity; filed as Kd, often an IC50 or EC50 that approximates it; ≥ and ≤ were set here for values at or beyond the usual limits of such assays
HLA-B*40:01 = assay: as above
HLA-B*18:01 = assay: as above
HLA-B*44:03 = assay: as above
HLA-B*45:01 = assay: as above
HLA-B*40:02 = assay: as above
HLA-A*02:01 [4] = assay: IEDB peptide-MHC binding, purified MHC/competitive/fluorescence; ≥ and ≤ were set here for values at or beyond the usual limits of such assays; conditions: source organism: Zaire ebolavirus
[5] = source organism: Vaccinia virus WR
[6] = source organism: SARS coronavirus Tor2
[7] = source organism: Mammarenavirus juninense
[8] = source organism: Dengue virus 3 China/80-2/1980
[9] = source organism: Dengue virus 3 Martinique/1243/1999
[10] = source organism: Zaire ebolavirus
[11] = source organism: Mammarenavirus lassaense
[12] = source organism: Vaccinia virus
[13] = source organism: Dengue virus 1 Singapore/S275/1990
[14] = source organism: Dengue virus 1 Brazil/97-11/1997
[15] = source organism: Lymphocytic choriomeningitis virus (strain Armstrong)
[16] = source organism: Dengue virus 3 Sri Lanka/1266/2000
[17] = source organism: Mammarenavirus machupoense

Sequence: MVIENGILKK
- Kd (HLA-A*68:01): 0.0149 µM
- Kd (HLA-A*33:01): ≥ 35.1 µM
- Kd (HLA-A*02:01 [1]; [5]): ≥ 69.4 µM
- Kd (HLA-A*68:02): 11.2 µM
- Kd (HLA-B*51:01; [5]): ≥ 69.6 µM
- Kd (HLA-A*02:06; [5]): ≥ 69.8 µM
- Kd (HLA-A*11:01 [2]): 0.0123 µM
- Kd (HLA-B*35:01; [5]): ≥ 30.3 µM
- Kd (HLA-B*07:02; [5]): ≥ 69.6 µM
- Kd (HLA-B*53:01; [5]): ≥ 69.9 µM
- Kd (HLA-A*31:01): 4.86 µM
- Kd (HLA-A*02:02): ≥ 70 µM
- Kd (HLA-A*03:01): 0.0383 µM
- Kd (HLA-A*02:03; [5]): ≥ 70.4 µM
- Kd (HLA-B*54:01; [5]): ≥ 69.9 µM

Sequence: TPLVQPVGAL
- Kd (HLA-B*51:01; [6]): 2.34 µM
- Kd (HLA-B*35:01; [6]): 5.27 µM
- Kd (HLA-B*07:02; [6]): 0.0869 µM
- Kd (HLA-B*53:01; [6]): 1.72 µM
- Kd (HLA-B*54:01; [6]): 0.494 µM

Sequence: HPDMDSMMI
- Kd (HLA-B*51:01; [7]): 3.31 µM
- Kd (HLA-B*35:01; [7]): 1.49 µM
- Kd (HLA-B*07:02; [7]): 0.806 µM
- Kd (HLA-B*53:01; [7]): 0.167 µM
- Kd (HLA-B*54:01; [7]): ≥ 68.4 µM

Sequence: LPFTLGIMAI
- Kd (HLA-B*51:01; [6]): 1.21 µM
- Kd (HLA-B*35:01; [6]): 4.98 µM
- Kd (HLA-B*07:02; [6]): 0.743 µM
- Kd (HLA-B*53:01; [6]): 0.487 µM
- Kd (HLA-B*54:01; [6]): 0.15 µM

Sequence: ILALFLAHYI
- Kd (HLA-A*02:17; [8]): 0.266 µM
- Kd (HLA-A*02:03; [9]): 0.0335 µM

Sequence: TFSILNRKA
- IC50 (HLA-A*11:01 [3]; [10]): 66.5 µM

Sequence: YPSMFEKHI
- Kd (HLA-B*51:01; [11]): 0.525 µM
- Kd (HLA-B*35:01; [11]): 0.898 µM
- Kd (HLA-B*07:02; [11]): 16.3 µM
- Kd (HLA-B*53:01; [11]): 0.228 µM
- Kd (HLA-B*54:01; [11]): ≥ 20.5 µM

Sequence: GGKVFAPKQ
- IC50 (HLA-A*11:01 [3]; [12]): ≥ 244 µM
- IC50 (HLA-A*24:02; [12]): ≥ 2250 µM

Sequence: TLMLLALIAV
- Kd (HLA-A*02:17; [13]): 9.1 µM
- Kd (HLA-A*02:01 [1]; [13]): 0.00752 µM
- Kd (HLA-A*02:06; [14]): 0.0527 µM
- Kd (HLA-A*02:03; [14]): 0.0291 µM

Sequence: EEAIRHVRAW
- Kd (HLA-B*44:02; [6]): 0.0073 µM
- Kd (HLA-B*40:01; [6]): ≥ 69.6 µM
- Kd (HLA-B*18:01; [6]): ≥ 43.1 µM
- Kd (HLA-B*44:03; [6]): 0.0142 µM
- Kd (HLA-B*45:01; [6]): 4.77 µM
- Kd (HLA-B*40:02; [6]): ≥ 70.8 µM

Sequence: ILWENNIKL
- Kd (HLA-A*02:17; [8]): 0.0911 µM

Sequence: WMTTEDMLSV
- Kd (HLA-A*02:17; [13]): 0.593 µM
- Kd (HLA-A*02:01 [1]; [13]): 0.0188 µM
- Kd (HLA-A*02:06; [14]): 0.0106 µM
- Kd (HLA-A*02:03; [14]): 0.00893 µM

Sequence: NELSLALGL
- Kd (HLA-B*44:02; [6]): 0.409 µM
- Kd (HLA-B*40:01; [6]): 0.277 µM
- Kd (HLA-B*18:01; [6]): 0.0909 µM
- Kd (HLA-B*44:03; [6]): 0.0285 µM
- Kd (HLA-B*45:01; [6]): 5.85 µM
- Kd (HLA-B*40:02; [6]): 0.154 µM

Sequence: ADSDDILTL
- Kd (HLA-B*44:02; [15]): ≥ 20.8 µM
- Kd (HLA-B*40:01; [15]): ≥ 26.9 µM
- Kd (HLA-B*18:01; [15]): ≥ 77.5 µM
- Kd (HLA-B*44:03; [15]): 6.06 µM
- Kd (HLA-B*45:01; [15]): ≥ 77.7 µM
- Kd (HLA-B*40:02; [15]): ≥ 22.2 µM

Sequence: ILAGVSLLPV
- Kd (HLA-A*02:17; [16]): 1.68 µM
- Kd (HLA-A*02:01 [1]; [16]): 0.00465 µM
- Kd (HLA-A*02:06; [9]): 0.00159 µM
- Kd (HLA-A*02:03; [9]): 0.00816 µM

Sequence: EEHFVETVSL
- Kd (HLA-B*44:02; [6]): 0.44 µM
- Kd (HLA-B*40:01; [6]): 0.0092 µM
- Kd (HLA-B*18:01; [6]): 1.04 µM
- Kd (HLA-B*44:03; [6]): 0.143 µM
- Kd (HLA-B*45:01; [6]): 0.116 µM
- Kd (HLA-B*40:02; [6]): 0.0843 µM

Sequence: MPALTIACM
- Kd (HLA-B*51:01; [17]): 3.7 µM
- Kd (HLA-B*35:01; [17]): 0.00523 µM
- Kd (HLA-B*07:02; [17]): 0.142 µM
- Kd (HLA-B*53:01; [17]): 0.0257 µM
- Kd (HLA-B*54:01; [17]): 0.836 µM

Sequence: NVPGPHRTI
- IC50 (HLA-A*02:01 [4]): 16 µM
- IC50 (HLA-A*11:01 [3]; [10]): 54.4 µM
- IC50 (HLA-A*24:02; [10]): 2.2 µM

Sequence: LPHLCLDYKV
- Kd (HLA-B*51:01; [5]): 0.36 µM
- Kd (HLA-B*35:01; [5]): 10.1 µM
- Kd (HLA-B*07:02; [5]): 8.45 µM
- Kd (HLA-B*53:01; [5]): 1.08 µM
- Kd (HLA-B*54:01; [5]): 0.00499 µM

Sequence: SVLLWMASV
- Kd (HLA-A*02:17; [13]): 0.0209 µM
- Kd (HLA-A*02:01 [1]; [13]): 0.00633 µM
- Kd (HLA-A*02:06; [13]): 0.0157 µM

Reference: the Immune Epitope Database (IEDB)
